Measured values published in patent publication US20210324028A1 (Pfizer, published 2021).

T1: human IL-2Rβ (human, UniProt P14784 27-240, limits assumed)
T1 construct: also called hIL-2Rβ; IL-2 receptor beta
T1 sequence (looked up): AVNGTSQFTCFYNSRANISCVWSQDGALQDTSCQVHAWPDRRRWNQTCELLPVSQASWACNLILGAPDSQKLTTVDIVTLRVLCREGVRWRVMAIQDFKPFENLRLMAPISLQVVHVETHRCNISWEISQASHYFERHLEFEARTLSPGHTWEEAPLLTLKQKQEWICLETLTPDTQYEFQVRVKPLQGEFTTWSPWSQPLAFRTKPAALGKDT


Experiments:
human IL-15Rα = target: T2, human IL-15Rα (human, UniProt Q13261 31-205, limits assumed); assay: SPR, steady state
T2 construct: also called hIL-15Rα; IL-15 receptor alpha

human IL-2Rβ = target: T1, human IL-2Rβ; assay: SPR, steady state

T2 sequence (Q13261 31-205 limits assumed): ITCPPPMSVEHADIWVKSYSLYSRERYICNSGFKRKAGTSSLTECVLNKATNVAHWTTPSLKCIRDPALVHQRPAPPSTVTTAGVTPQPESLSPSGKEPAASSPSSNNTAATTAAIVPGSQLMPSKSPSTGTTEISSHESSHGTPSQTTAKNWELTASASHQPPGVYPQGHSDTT

Kd (human IL-15Rα) [µM]	Kd (human IL-2Rβ) [µM]	Binder
0.101	0.185	hIL-15 V49R/K10W (ligand) NWVNVISDLWKIEDLIQSMHIDATLYTESDVHPSCKVTAMKCFLLELQRISLESGDASIHDTVENLIILANNSLSSNGNVTESGCKECEELEEKNIKEFLQSFVHIVQMFINTGGGGSGHHHHHHHHGGGLNDIFEAQKIEWHE
0.219	0.143	hIL-15 V49R/K11Y (ligand) NWVNVISDLKYIEDLIQSMHIDATLYTESDVHPSCKVTAMKCFLLELQRISLESGDASIHDTVENLIILANNSLSSNGNVTESGCKECEELEEKNIKEFLQSFVHIVQMFINTGGGGSGHHHHHHHHGGGLNDIFEAQKIEWHE
0.0931	0.306	hIL-15 V49R/L69I (ligand) NWVNVISDLKKIEDLIQSMHIDATLYTESDVHPSCKVTAMKCFLLELQRISLESGDASIHDTVENLIIIANNSLSSNGNVTESGCKECEELEEKNIKEFLQSFVHIVQMFINTGGGGSGHHHHHHHHGGGLNDIFEAQKIEWHE
0.0478	> 1	hIL-15 V49R/L69E (ligand) NWVNVISDLKKIEDLIQSMHIDATLYTESDVHPSCKVTAMKCFLLELQRISLESGDASIHDTVENLIIEANNSLSSNGNVTESGCKECEELEEKNIKEFLQSFVHIVQMFINTGGGGSGHHHHHHHHGGGLNDIFEAQKIEWHE
0.242	> 0.5	hIL-15 V49R/K11D (ligand) NWVNVISDLKDIEDLIQSMHIDATLYTESDVHPSCKVTAMKCFLLELQRISLESGDASIHDTVENLIILANNSLSSNGNVTESGCKECEELEEKNIKEFLQSFVHIVQMFINTGGGGSGHHHHHHHHGGGLNDIFEAQKIEWHE
0.159	0.16	hIL-15 V49R/K11E (ligand) NWVNVISDLKEIEDLIQSMHIDATLYTESDVHPSCKVTAMKCFLLELQRISLESGDASIHDTVENLIILANNSLSSNGNVTESGCKECEELEEKNIKEFLQSFVHIVQMFINTGGGGSGHHHHHHHHGGGLNDIFEAQKIEWHE
0.142	0.11	hIL-15 V49R/K11V (ligand) NWVNVISDLKVIEDLIQSMHIDATLYTESDVHPSCKVTAMKCFLLELQRISLESGDASIHDTVENLIILANNSLSSNGNVTESGCKECEELEEKNIKEFLQSFVHIVQMFINTGGGGSGHHHHHHHHGGGLNDIFEAQKIEWHE
0.217	0.291	hIL-15 V49R/K11N (ligand) NWVNVISDLKNIEDLIQSMHIDATLYTESDVHPSCKVTAMKCFLLELQRISLESGDASIHDTVENLIILANNSLSSNGNVTESGCKECEELEEKNIKEFLQSFVHIVQMFINTGGGGSGHHHHHHHHGGGLNDIFEAQKIEWHE
0.14	0.138	hIL-15 V49R/K11R (ligand) NWVNVISDLKRIEDLIQSMHIDATLYTESDVHPSCKVTAMKCFLLELQRISLESGDASIHDTVENLIILANNSLSSNGNVTESGCKECEELEEKNIKEFLQSFVHIVQMFINTGGGGSGHHHHHHHHGGGLNDIFEAQKIEWHE
0.147	0.104	hIL-15 V49R/K11H (ligand) NWVNVISDLKHIEDLIQSMHIDATLYTESDVHPSCKVTAMKCFLLELQRISLESGDASIHDTVENLIILANNSLSSNGNVTESGCKECEELEEKNIKEFLQSFVHIVQMFINTGGGGSGHHHHHHHHGGGLNDIFEAQKIEWHE
0.156	0.107	hIL-15 V49R/K11Q (ligand) NWVNVISDLKQIEDLIQSMHIDATLYTESDVHPSCKVTAMKCFLLELQRISLESGDASIHDTVENLIILANNSLSSNGNVTESGCKECEELEEKNIKEFLQSFVHIVQMFINTGGGGSGHHHHHHHHGGGLNDIFEAQKIEWHE
0.191	0.206	hIL-15 V49R/K11A (ligand) NWVNVISDLKAIEDLIQSMHIDATLYTESDVHPSCKVTAMKCFLLELQRISLESGDASIHDTVENLIILANNSLSSNGNVTESGCKECEELEEKNIKEFLQSFVHIVQMFINTGGGGSGHHHHHHHHGGGLNDIFEAQKIEWHE
0.194	0.453	hIL-15 V49R/K11S (ligand) NWVNVISDLKSIEDLIQSMHIDATLYTESDVHPSCKVTAMKCFLLELQRISLESGDASIHDTVENLIILANNSLSSNGNVTESGCKECEELEEKNIKEFLQSFVHIVQMFINTGGGGSGHHHHHHHHGGGLNDIFEAQKIEWHE
0.0829	> 0.5	hIL-15 V49R/L69A (ligand) NWVNVISDLKKIEDLIQSMHIDATLYTESDVHPSCKVTAMKCFLLELQRISLESGDASIHDTVENLIIAANNSLSSNGNVTESGCKECEELEEKNIKEFLQSFVHIVQMFINTGGGGSGHHHHHHHHGGGLNDIFEAQKIEWHE
0.0656	> 0.5	hIL-15 V49R/L69D (ligand) NWVNVISDLKKIEDLIQSMHIDATLYTESDVHPSCKVTAMKCFLLELQRISLESGDASIHDTVENLIIDANNSLSSNGNVTESGCKECEELEEKNIKEFLQSFVHIVQMFINTGGGGSGHHHHHHHHGGGLNDIFEAQKIEWHE
0.0745	> 1	hIL-15 V49R/L69M (ligand) NWVNVISDLKKIEDLIQSMHIDATLYTESDVHPSCKVTAMKCFLLELQRISLESGDASIHDTVENLIIMANNSLSSNGNVTESGCKECEELEEKNIKEFLQSFVHIVQMFINTGGGGSGHHHHHHHHGGGLNDIFEAQKIEWHE
0.0782	> 0.5	hIL-15 V49R/L69S (ligand) NWVNVISDLKKIEDLIQSMHIDATLYTESDVHPSCKVTAMKCFLLELQRISLESGDASIHDTVENLIISANNSLSSNGNVTESGCKECEELEEKNIKEFLQSFVHIVQMFINTGGGGSGHHHHHHHHGGGLNDIFEAQKIEWHE
0.142	0.0922	hIL-15 V49R/K11L (ligand) NWVNVISDLKLIEDLIQSMHIDATLYTESDVHPSCKVTAMKCFLLELQRISLESGDASIHDTVENLIILANNSLSSNGNVTESGCKECEELEEKNIKEFLQSFVHIVQMFINTGGGGSGHHHHHHHHGGGLNDIFEAQKIEWHE
0.169	0.225	hIL-15 V49R/K11T (ligand) NWVNVISDLKTIEDLIQSMHIDATLYTESDVHPSCKVTAMKCFLLELQRISLESGDASIHDTVENLIILANNSLSSNGNVTESGCKECEELEEKNIKEFLQSFVHIVQMFINTGGGGSGHHHHHHHHGGGLNDIFEAQKIEWHE
0.0958	0.076	hIL-15 V49R/K11I (ligand) NWVNVISDLKIIEDLIQSMHIDATLYTESDVHPSCKVTAMKCFLLELQRISLESGDASIHDTVENLIILANNSLSSNGNVTESGCKECEELEEKNIKEFLQSFVHIVQMFINTGGGGSGHHHHHHHHGGGLNDIFEAQKIEWHE
